pKd: −log10 of the molar value. Like-named read-outs stand apart in the source and are kept apart here. Bounds are passed on as bounds.

Assay [1] has as its target 20-mer V3 peptide of HIVMN (American Bio-Technologies) (HIV-1 strain MN). The experiment in a line: Friguet ELISA method, V3 MN peptide.
The target in assay [2] is gp120 of HIVMN (HIV-1 strain MN) (UniProt P05877).
Assay [3] addresses 20-mer V3 peptide of HIVMN (American Bio-Technologies) (HIV-1 strain MN). The experiment in a line: competition ELISA in solution at equilibrium (Friguet method).
For assay [4], the target named is 20-mer V3 peptide of HIVSF2 (HIV-1 isolate SF-2). The assay is described as above.
Assay [5] addresses gp120 of HIVMN (HIV-1 strain MN) (UniProt P05877). This is another data set of the same source.
For assay [6], the target named is hexapeptide IHIGPG (pin 9) (HIV-1 strain MN). The experiment in a line: pin ELISA, hexapeptide on plastic pin. In general terms: In an ELISA, binding on a coated surface is turned into a signal by an enzyme label.
For assay [7], the target named is hexapeptide AFYTTK (pin 16) (HIV-1 strain MN). Put plainly: pin ELISA, hexapeptide on plastic pin.
The target of assay [8] is hexapeptide NKRKRI (pin 4) (HIV-1 strain MN). Put plainly: pin ELISA, hexapeptide on plastic pin.
Assay [9] addresses hexapeptide TKNIIG (pin 20) (HIV-1 strain MN). The experiment in a line: pin ELISA, hexapeptide on plastic pin.
Assay [10] has as its target hexapeptide PGRAFY (pin 13) (HIV-1 strain MN). Put plainly: pin ELISA, hexapeptide on plastic pin.
For assay [11], the target named is hexapeptide RIHIGP (pin 8) (HIV-1 strain MN). The experiment in a line: pin ELISA, hexapeptide on plastic pin.
Assay [12] concerns the target hexapeptide RAFYTT (pin 15) (HIV-1 strain MN). The experiment in a line: pin ELISA, hexapeptide on plastic pin.
For assay [13], the target named is hexapeptide GRAFYT (pin 14) (HIV-1 strain MN). The experiment in a line: pin ELISA, hexapeptide on plastic pin.
Assay [14] has as its target hexapeptide GPGRAF (pin 12) (HIV-1 strain MN). Put plainly: pin ELISA, hexapeptide on plastic pin.
Assay [15] concerns the target hexapeptide FYTTKN (pin 17) (HIV-1 strain MN). Put plainly: pin ELISA, hexapeptide on plastic pin.
Assay [16] deals with hexapeptide TTKNII (pin 19) (HIV-1 strain MN). The experiment in a line: pin ELISA, hexapeptide on plastic pin.
The target in assay [17] is hexapeptide KRKRIH (pin 5) (HIV-1 strain MN). Put plainly: pin ELISA, hexapeptide on plastic pin.
Assay [18] deals with hexapeptide YNKRKR (pin 3) (HIV-1 strain MN). The experiment in a line: pin ELISA, hexapeptide on plastic pin.
Assay [19] has as its target hexapeptide IGPGRA (pin 11) (HIV-1 strain MN). The experiment in a line: pin ELISA, hexapeptide on plastic pin.
The target of assay [20] is hexapeptide YTTKNI (pin 18) (HIV-1 strain MN). The experiment in a line: pin ELISA, hexapeptide on plastic pin.
Assay [21] deals with hexapeptide RKRIHI (pin 6) (HIV-1 strain MN). Put plainly: pin ELISA, hexapeptide on plastic pin.
In assay [22] the target is hexapeptide HIGPGR (pin 10) (HIV-1 strain MN). Put plainly: pin ELISA, hexapeptide on plastic pin.
Assay [23] addresses hexapeptide KRIHIG (pin 7) (HIV-1 strain MN). The experiment in a line: pin ELISA, hexapeptide on plastic pin.
For assay [24], the target named is gp41 of HIVMN (virus) (HIV-1 strain MN).
The target in assay [25] is gp120 of HIV-1 isolate RF (HIV-1 isolate RF) (UniProt P04579).
Assay [26] concerns the target gp120 of HTLV-IIIB (HIV-1 isolate IIIB).
For assay [27], the target named is gp120 of HIV-1 isolate SF-2 (virus) (HIV-1 isolate SF-2) (UniProt P03378).
The target of assay [28] is gp120 of HIV-1 isolate AL-1 (HIV-1 isolate AL-1).
Assay [29] deals with gp120 of HIV-1 isolate WMJ-2 (HIV-1 isolate WMJ-2).
For assay [30], the target named is gp120 of HIVMN (HIV-1 strain MN) (UniProt P05877). This is another data set of the same source.
In assay [31] the target is 20-mer V3 peptide of HIVSF2 (HIV-1 isolate SF-2). The experiment in a line: ELISA on V3 peptide coated plates, mAb at 10 µg/ml.
For assay [32], the target named is 23-mer peptide of the gp120 V3 loop of the MN strain of HIV-1 (HIV-1 strain MN). Put plainly: ELISA on V3 peptide coated plates, mAb at 10 µg/ml.
Assay [33] deals with V3-SC peptide (HIV-1 isolate SC). Put plainly: ELISA on V3 peptide coated plates, mAb at 10 µg/ml.
Assay [34] deals with V3-WM52 peptide (HIV-1 isolate WM52). Put plainly: ELISA on V3 peptide coated plates, mAb at 10 µg/ml.
The target of assay [35] is V3-CDC4 peptide (HIV-1 isolate CDC4). Put plainly: ELISA on V3 peptide coated plates, mAb at 10 µg/ml.
In assay [36] the target is V3-NY5 peptide (HIV-1 isolate NY5). The experiment in a line: ELISA on V3 peptide coated plates, mAb at 10 µg/ml.
The target of assay [37] is 22-mer V3 peptide of HXB2 (HIV-1 HXB2 (IIIB)). The experiment in a line: competition ELISA in solution at equilibrium (Friguet method).
The target of assay [38] is 20-mer V3 peptide of HIVSF2 (HIV-1 isolate SF-2). The experiment in a line: competition ELISA in solution (Friguet method); reference: the MN peptide.
Assay [39] has as its target recombinant gp120 protein of HIVSF2 (produced in CHO cells) (HIV-1 isolate SF-2) (UniProt P03378). Put plainly: Friguet method; reference: the 20-mer SF-2 peptide.
Assay [40] deals with 20-mer V3 peptide of HIVSF2 (HIV-1 isolate SF-2). Put plainly: competition ELISA in solution at equilibrium (Friguet method). This is another data set of the same source.
Assay [41] deals with recombinant gp120 protein of HIVSF2 (produced in CHO cells) (HIV-1 isolate SF-2) (UniProt P03378). Described as above.

For orientation: pKd means the Kd on a negative log10 scale, so that one unit is a factor of ten. As for human mAb 412-D (antibody), the pKd in assay [1] and in assay [3] was 5.04 throughout. In assay [2], this substance returned a 50% neutralization, CEM-SS syncytium-forming assay, IgG concentration of 4.69 µg/mL. Also, the 90% neutralization, CEM-SS syncytium-forming assay, IgG concentration in assay [2] is > 10 µg/mL.
With human mAb 268-D (antibody), the values for the pKd in [1], in assay [4] and in assay [3] were 6.23, 5.64 and 6.23, respectively. In assay [2], this substance yielded a 50% neutralization, CEM-SS syncytium-forming assay, IgG concentration of 0.1 µg/mL. Further, the 90% neutralization, CEM-SS syncytium-forming assay, IgG concentration in assay [2] turned out to be 1 µg/mL. In addition, the neutralizing antibody titer (50%), MT-2 plaque assay, 1 hr, no complement in [5] came to 23 ng/mL. Further, the neutralizing antibody titer (50%), MT-2 plaque assay, 18 hr with human complement in assay [5] is 1.1 ng/mL. In addition, the ELISA reactivity (absorbance units) (absorbance units) in assay [6] stood at 0.132; in [7], 0.222; in [8], 0.283; in [9], 0.141; in assay [10], 0.346; in assay [11] it was 0.135. The ELISA reactivity (absorbance units) (absorbance units) came to 0.35 in [12]; 0.288 in assay [13]; 0.132 in [14]; 0.274 in assay [15]; 0.212 in assay [16]; 0.239 in assay [17]. Further, the ELISA reactivity (absorbance units) (absorbance units) in assay [18] amounted to 0.243; in assay [19] it was 0.164; in [20] it was 0.259; in assay [21] it was 0.252; in assay [22] it was 1.01; in assay [23] it was 0.179.
Take human mAb 50-69 (antibody): in [24], the neutralizing antibody titer (50%), MT-2 plaque assay, 1 hr, no complement (titer (1:x dilution)) was determined as 3 and the neutralizing antibody titer (50%), MT-2 plaque assay, 18 hr with human complement (titer (1:x dilution)) came to 3.
For human mAb 537-D (antibody), the neutralization endpoint, MT-4 cell killing assay is > 50 µg/mL in assay [25]; > 50 µg/mL in [26]; > 5 µg/mL in assay [27]; 3.13 µg/mL in assay [28]; > 50 µg/mL in [29]; 6.25 µg/mL in [30]. The minimum antigen concentration giving positive results (µg/ml of V3 peptide used to coat) in [31] turned out to be 1; in assay [32], 0.6; in assay [33] it was 1; in assay [34] it was 2; in assay [35] it was 1; in assay [36], 0.8. The pKd in [1] was 5.89; in assay [4] it was 5.07; in assay [37] it was < 4.00; in [3], 5.89. In assay [2], this substance gave a 50% neutralization, CEM-SS syncytium-forming assay, IgG concentration of 2.69 µg/mL. Further, in [2], the 90% neutralization, CEM-SS syncytium-forming assay, IgG concentration is > 10 µg/mL. The same substance gave a fold difference of Kd between the two V3 peptides (MN and SF-2) in [38] of 7 fold.
For human mAb 257-D (antibody), the Difference (Kd of the SF-2 peptide against SF-2 recombinant) in assay [39] stood at 15 fold. Besides, the pKd was 6.64 in assay [1]; 6.66 in assay [4]; 6.64 in assay [3]; 6.20 in assay [40]; 7.38 in [41]. The same substance yielded a 50% neutralization, CEM-SS syncytium-forming assay, IgG concentration in assay [2] of 0.01 µg/mL. Further, in [2], the 90% neutralization, CEM-SS syncytium-forming assay, IgG concentration was determined as 0.88 µg/mL. In [5], this substance came in with a neutralizing antibody titer (50%), MT-2 plaque assay, 1 hr, no complement of 3 ng/mL. In assay [5], this substance displayed a neutralizing antibody titer (50%), MT-2 plaque assay, 18 hr with human complement of 0.3 ng/mL. Besides, the ELISA reactivity (absorbance units) (absorbance units) in [6] turned out to be 0.13; in assay [7], 0.233; in assay [8] it was 0.288; in [9], 0.164; in assay [10], 0.456; in [11] it was 0.276. The ELISA reactivity (absorbance units) (absorbance units) is 0.333 in assay [12]; 0.272 in assay [13]; 0.208 in assay [14]; 0.273 in assay [15]; 0.219 in [16]; 0.259 in assay [17]. The ELISA reactivity (absorbance units) (absorbance units) in assay [18] turned out to be 0.256; in assay [19], 0.163; in [20], 0.259; in assay [21], 1.78; in [22], 0.156; in assay [23], 1.59.

(Values after US5914109.)
